Source: the RNAGym collection of RNA variant scans (doi:10.7554/elife.80360)

B1: Hairpin Ribozyme (parent)
chain: GUCCUCUUUCACGUGCGCGUGAAAGAGAGAAGUGAACCAGAGAAACACACGUUGUGGUAUAUUACCUGGUA

Variants of: B1
Assay: self-cleavage, relative activity (ratio to wild type); higher = more cleavage; co-transcriptional

Row | Variant | self-cleavage
1 | A41G A43C | 0.285
2 | A41G A43U | 0.152
3 | A41U A45G | 0.218
4 | G40U U60A | 0.191
5 | G40A U63G | 0.126
6 | G40U A44C | 0.105
7 | G40U A44U | 0.142
8 | G42C C46U | 0.12
9 | A39U G54U | 0.163
10 | A41U C46G | 0.133
11 | A39G U58G | 0.114
12 | A39G U58A | 0.217
13 | A41U A64U | 0.258
14 | A41U A64G | 0.372
15 | A41U A64C | 0.153
16 | G40C C50G | 0.12
17 | G40A C66A | 0.322
18 | G42C A47U | 0.147
19 | G40U G69U | 0.0875
20 | G40C A43U | 0.128
21 | G40C A43C | 0.168
22 | A41C G54A | 0.829
23 | A41C U70G | 0.91
24 | A41C U70A | 0.732

Row | Variant | self-cleavage
25 | G42U A43U | 0.108
26 | G42U A43G | 0.102
27 | G42U A43C | 0.179
28 | A39U U53C | 0.508
29 | A41G G57A | 0.184
30 | A41G G57U | 0.184
31 | G40C U62G | 0.0847
32 | A41U G54U | 1.19
33 | A43C U53A | 0.129
34 | A43C U53C | 0.163
35 | G40A U52C | 0.347
36 | G40A U52A | 0.352
37 | G40U A64U | 0.1
38 | G40U A64C | 0.175
39 | A43C A71U | 0.159
40 | A43C A71C | 0.26
41 | A39U G68U | 0.225
42 | G40C G57C | 0.134
43 | G40C G57U | 0.106
44 | A41G C65U | 1.05
45 | G42A U58C | 0.21
46 | G40C G68U | 0.148
47 | A43C A64U | 0.198
48 | G40C G56C | 0.122

Row | Variant | self-cleavage
49 | G40C A44C | 0.0317
50 | G42C A43G | 0.177
51 | G40U U70C | 0.12
52 | G42U G56U | 0.169
53 | G42U G56C | 0.147
54 | G42C G54C | 0.113
55 | A41G U53G | 1.05
56 | A41G C66A | 0.355
57 | A41G C66U | 0.682
58 | A41C C48U | 0.183
59 | A41U G57U | 0.493
60 | A41C G57C | 0.226
61 | G42C U52C | 0.427
62 | A39U U62A | 0.126
63 | G42U U55A | 0.069
64 | A41U U70G | 1.1
65 | A41U U70A | 0.776
66 | G42C A71U | 0.142
67 | G42C A71G | 0.339
68 | A41G C46A | 0.151
69 | A43C U62C | 0.129
70 | G40A A45C | 0.0818
71 | G40U | 0.175
72 | G40C | 0.128

Row | Variant | self-cleavage
73 | G40A | 0.329
74 | G40A A44C | 0.161
75 | G40A A44G | 0.144
76 | G42C G57U | 0.146
77 | G42U C66A | 0.162
78 | A41G A47G | 0.0362
79 | A39U C65G | 0.232
80 | G42U G68A | 0.129
81 | G42U G68C | 0.152
82 | G42U U58A | 0.0966
83 | A41U C66U | 0.46
84 | G42A C48G | 0.127
85 | G42U A61U | 0.283
86 | G42A A45U | 0.109
87 | G42U A49G | 0.134
88 | A41G A61C | 0.299
89 | A41G A61U | 0.195
90 | G40A G69C | 0.11
91 | G40C U63A | 0.183
92 | G40C U63G | 0.135
93 | G40U U58A | 0.155
94 | A41C G42A | 0.805
95 | A41C G56C | 0.237
96 | G42A A43C | 0.127

Row | Variant | self-cleavage
97 | G40A C50G | 0.243
98 | A41C A49U | 0.0586
99 | A41C A49G | 0.561
100 | A41G U62A | 0.0775
101 | A41G U62C | 0.198
102 | A43C U63A | 0.126
103 | G40U G56A | 0.174
104 | G40U G56C | 0.147
105 | G42C G51U | 0.448
106 | G42A G56C | 0.105
107 | G42A U53C | 0.388
108 | G42A U53G | 0.237
109 | A43C C66U | 0.181
110 | A41G G69U | 0.42
111 | G40A U58A | 0.134
112 | G40A U58G | 0.19
113 | G42U U70C | 0.162
114 | G42U U70A | 0.233
115 | A43C A45C | 0.153
116 | G42A A47G | 0.162
117 | A43G A47C | 0.172
118 | G42A U67A | 0.219
119 | G42A U67G | 0.125
120 | G42U A45G | 0.131

Row | Variant | self-cleavage
121 | G42U A45C | 0.227
122 | G42U A45U | 0.112
123 | G40C A64G | 0.129
124 | G40C A64C | 0.126
125 | A39U A71U | 0.19
126 | G42A A64U | 0.107
127 | A41G U60G | 0.367
128 | G40U U62A | 0.141
129 | G40U U62C | 0.212
130 | A39U A47U | 0.164
131 | G40A U53C | 0.46
132 | G40A U53G | 0.169
133 | G40U C66U | 0.223
134 | A43C A59U | 0.101
135 | A41C A71U | 1.18
136 | A41C A71G | 1.26
137 | A41G G56A | 0.255
138 | A41U G42C | 0.464
139 | G40U G42A | 0.202
140 | A41G G68U | 0.364
141 | G42C A44C | 0.0939
142 | G42C A44G | 0.137
143 | G42C A44U | 0.174
144 | A41U U58C | 1.41

Row | Variant | self-cleavage
145 | A43C G56U | 0.141
146 | A43C G56C | 0.165
147 | A43C G56A | 0.13
148 | A43C U52G | 0.164
149 | A43C U52C | 0.109
150 | G42C U53C | 0.491
151 | G40A U62C | 0.141
152 | G40A U62A | 0.12
153 | G40A A59U | 0.136
154 | G40A A59C | 0.121
155 | A41U U60A | 1.37
156 | G42C A64G | 0.232
157 | G42C U67G | 0.125
158 | G42C U67A | 0.0793
159 | G40A A43C | 0.147
160 | A41C A59C | 0.17
161 | A39G U60A | 0.228
162 | A39U A64G | 0.116
163 | G42A U70C | 0.128
164 | A41U G56A | 0.285
165 | A41U G56U | 0.125
166 | G40C A47C | 0.142
167 | G40U U63A | 0.138
